In paper PMC5511170, “Deviation of the typical AAA substrate-threading pore prevents fatal protein degradation in yeast Cdc48” (Scientific Reports, 2017):

Biological target: T1, GST-Ufd2 (yeast (Saccharomyces cerevisiae), UniProt P54860 1-961)
T1 construct: Ufd2, E4 ubiquitin ligase, yeast, cloned in pGEX6P-1; Cloned in pGEX6P-1; source: E. coli BL21, purified (glutathione-sepharose)
T1 sequence (looked up): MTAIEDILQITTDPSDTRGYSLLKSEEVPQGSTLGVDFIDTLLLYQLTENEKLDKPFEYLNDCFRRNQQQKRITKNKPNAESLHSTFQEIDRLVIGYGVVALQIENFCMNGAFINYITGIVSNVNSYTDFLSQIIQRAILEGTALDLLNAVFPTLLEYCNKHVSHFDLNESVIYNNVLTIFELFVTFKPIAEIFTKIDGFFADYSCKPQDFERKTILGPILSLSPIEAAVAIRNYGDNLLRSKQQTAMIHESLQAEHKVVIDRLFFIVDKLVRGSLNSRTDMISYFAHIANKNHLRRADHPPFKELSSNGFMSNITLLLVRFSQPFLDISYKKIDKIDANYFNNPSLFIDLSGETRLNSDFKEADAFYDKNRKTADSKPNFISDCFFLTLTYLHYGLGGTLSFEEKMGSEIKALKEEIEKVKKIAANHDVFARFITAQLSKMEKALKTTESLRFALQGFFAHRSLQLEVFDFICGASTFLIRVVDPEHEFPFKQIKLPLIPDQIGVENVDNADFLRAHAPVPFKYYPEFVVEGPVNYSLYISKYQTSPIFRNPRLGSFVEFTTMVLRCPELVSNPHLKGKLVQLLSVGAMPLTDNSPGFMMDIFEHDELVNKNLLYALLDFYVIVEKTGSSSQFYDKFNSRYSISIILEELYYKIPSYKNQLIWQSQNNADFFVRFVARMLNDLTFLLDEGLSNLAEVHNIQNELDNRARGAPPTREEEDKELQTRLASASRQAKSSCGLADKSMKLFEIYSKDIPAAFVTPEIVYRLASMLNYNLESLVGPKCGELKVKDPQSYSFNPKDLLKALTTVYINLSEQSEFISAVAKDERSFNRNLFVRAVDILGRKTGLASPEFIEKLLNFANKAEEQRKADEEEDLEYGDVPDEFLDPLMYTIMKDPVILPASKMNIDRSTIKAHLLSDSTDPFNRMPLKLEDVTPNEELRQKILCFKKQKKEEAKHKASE
Experiment: pull-down; GST-Ufd2 (40 pmol) incubated with 20 pmol Cdc48 in 100 µL 20 mM Tris-HCl pH 7.4, 50 mM NaCl, 1 mM MgCl2, 5 mM β-mercaptoethanol, 20% glycerol, 10 min at 25 °C; then glutathione-sepharose 4B 30 min at room temperature; eluted with glutathione; immunoblot with anti-Cdc48 and anti-GST
Conditions: both partners purified

B1: wild-type Cdc48 (N-terminally His-tagged) (natural protein, Saccharomyces cerevisiae, UniProt P25694 1-835, looked up)
chain: MGEEHKPLLDASGVDPREEDKTATAILRRKKKDNMLLVDDAINDDNSVIAINSNTMDKLELFRGDTVLVKGKKRKDTVLIVLIDDELEDGACRINRVVRNNLRIRLGDLVTIHPCPDIKYATRISVLPIADTIEGITGNLFDVFLKPYFVEAYRPVRKGDHFVVRGGMRQVEFKVVDVEPEEYAVVAQDTIIHWEGEPINREDEENNMNEVGYDDIGGCRKQMAQIREMVELPLRHPQLFKAIGIKPPRGVLMYGPPGTGKTLMARAVANETGAFFFLINGPEVMSKMAGESESNLRKAFEEAEKNAPAIIFIDEIDSIAPKRDKTNGEVERRVVSQLLTLMDGMKARSNVVVIAATNRPNSIDPALRRFGRFDREVDIGIPDATGRLEVLRIHTKNMKLADDVDLEALAAETHGYVGADIASLCSEAAMQQIREKMDLIDLDEDEIDAEVLDSLGVTMDNFRFALGNSNPSALRETVVESVNVTWDDVGGLDEIKEELKETVEYPVLHPDQYTKFGLSPSKGVLFYGPPGTGKTLLAKAVATEVSANFISVKGPELLSMWYGESESNIRDIFDKARAAAPTVVFLDELDSIAKARGGSLGDAGGASDRVVNQLLTEMDGMNAKKNVFVIGATNRPDQIDPAILRPGRLDQLIYVPLPDENARLSILNAQLRKTPLEPGLELTAIAKATQGFSGADLLYIVQRAAKYAIKDSIEAHRQHEAEKEVKVEGEDVEMTDEGAKAEQEPEVDPVPYITKEHFAEAMKTAKRSVSDAELRRYEAYSQQMKASRGQFSNFNFNDAPLGTTATDNANSNNSAPSGAGAAFGSNAEEDDDLYS
notes: Cdc48, Saccharomyces cerevisiae, wild type, cloned in pET15b; Cloned in pET15b; also called WT; yeast Cdc48
**Q.** Does B1 bind?
**A.** Result: binds

B2: Cdc48 M288Y mutant (N-terminally His-tagged) (natural protein, Saccharomyces cerevisiae, UniProt P25694 1-835, looked up)
chain: MGEEHKPLLDASGVDPREEDKTATAILRRKKKDNMLLVDDAINDDNSVIAINSNTMDKLELFRGDTVLVKGKKRKDTVLIVLIDDELEDGACRINRVVRNNLRIRLGDLVTIHPCPDIKYATRISVLPIADTIEGITGNLFDVFLKPYFVEAYRPVRKGDHFVVRGGMRQVEFKVVDVEPEEYAVVAQDTIIHWEGEPINREDEENNMNEVGYDDIGGCRKQMAQIREMVELPLRHPQLFKAIGIKPPRGVLMYGPPGTGKTLMARAVANETGAFFFLINGPEVMSKYAGESESNLRKAFEEAEKNAPAIIFIDEIDSIAPKRDKTNGEVERRVVSQLLTLMDGMKARSNVVVIAATNRPNSIDPALRRFGRFDREVDIGIPDATGRLEVLRIHTKNMKLADDVDLEALAAETHGYVGADIASLCSEAAMQQIREKMDLIDLDEDEIDAEVLDSLGVTMDNFRFALGNSNPSALRETVVESVNVTWDDVGGLDEIKEELKETVEYPVLHPDQYTKFGLSPSKGVLFYGPPGTGKTLLAKAVATEVSANFISVKGPELLSMWYGESESNIRDIFDKARAAAPTVVFLDELDSIAKARGGSLGDAGGASDRVVNQLLTEMDGMNAKKNVFVIGATNRPDQIDPAILRPGRLDQLIYVPLPDENARLSILNAQLRKTPLEPGLELTAIAKATQGFSGADLLYIVQRAAKYAIKDSIEAHRQHEAEKEVKVEGEDVEMTDEGAKAEQEPEVDPVPYITKEHFAEAMKTAKRSVSDAELRRYEAYSQQMKASRGQFSNFNFNDAPLGTTATDNANSNNSAPSGAGAAFGSNAEEDDDLYS
notes: Cdc48, Saccharomyces cerevisiae, with M288Y in the D1 pore loop, cloned in pET15b; Cloned in pET15b
**Q.** Does B2 bind?
**A.** Result: binds
